Measurements taken from PMC7864571.

Biological target: T1, NXF1(RRM-LRR) (UniProt Q9UBU9 96-362)
T1 sequence: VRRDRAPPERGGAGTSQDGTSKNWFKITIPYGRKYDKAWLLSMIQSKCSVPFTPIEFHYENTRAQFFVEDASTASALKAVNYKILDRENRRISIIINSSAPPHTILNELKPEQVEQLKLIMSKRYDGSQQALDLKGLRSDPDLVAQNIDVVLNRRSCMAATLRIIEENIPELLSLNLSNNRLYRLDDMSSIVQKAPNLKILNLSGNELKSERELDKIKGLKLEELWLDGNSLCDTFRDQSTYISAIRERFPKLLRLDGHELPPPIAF
Test: EMSA; in presence of GST-Nsp1(1-129); RNA binding of NXF1 not impaired; 10 mM Tris pH 8.0, 100 mM NaCl, 0.5 mM TCEP, 8% glycerol, 0.5 U/ul SUPERase-In, room temperature 10 min; 5% native PAGE; 100 nM RNA
Conditions: protein: recombinant; tags: GST tag removed by TEV; label: 5' Alexa Fluor 488; single strand

## UUUUUUUUUUUUUUU (ssRNA) [poly(U) 15-mer RNA]
  binding result: binds
